Experimental data reported in the supplement of paper PMC9732359.
± gives the uncertainty stated by the source.

Experiment: protein stability index of a GFP-peptide fusion (yeast GPS) (PSI 1-4); higher = more stable; sorted into four equal gates, so the index is relative within each strain
Procedure, shortened: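 Mid-log yeast cultures in leucine-free medium, carrying a pooled plasmid library, were sorted into four equal gates by their GFP/Cherry fluorescence ratio. Each plasmid expressed Cherry along with GFP fused upstream of a tiled 17-residue yeast protein peptide. Plasmids recovered from each gate were PCR-amplified and Illumina-sequenced, with reads assigned to strains by barcodes. The protein stability index was obtained by summing each gate's read frequency weighted by its gate number.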

Sequence	protein stability index (doa10∆)	protein stability index (pdr5∆)	protein stability index (san1∆)	protein stability index (ubr1∆)
SVDIGVETILSGKARIC [FAS2]	2.7 ± 0.12	2.75 ± 0.11	1.8 ± 0.12	2.78 ± 0.069
IITSGRDTREVLEERER [ARP9]	3.41 ± 0.16	3.36 ± 0.14	3.52 ± 0.065	3.52 ± 0.1
TPGSVSLSAYNLTDEGY [PRP8]	2.23 ± 0.15	2.5 ± 0.077	2.3 ± 0.094	1.96 ± 0.21
VYANNPEVSDDGGLEEE [SIR3]	2.97 ± 0.13	2.87 ± 0.12	2.52 ± 0.14	3.04 ± 0.09
KLNKVDKNELQQMIITR [SIR3]	3.12 ± 0.074	3.22 ± 0.07	3.28 ± 0.039	3.23 ± 0.043
RKDENQFSYVDSSMTTV [AAR2]	2.98 ± 0.041	3.09 ± 0.045	3 ± 0.033	3.06 ± 0.04
TPYSNESGLVNADLDVK [RPO21]	2.75 ± 0.054	2.96 ± 0.073	3.02 ± 0.056	2.87 ± 0.046
MTDIWNTLIPESSLTIS [ECM29]	2.22 ± 0.064	2.46 ± 0.054	2.14 ± 0.1	2.87 ± 0.058
QFTGFLLHEMTQTYMQM [GRR1]	1.92 ± 0.054	2.08 ± 0.036	2.2 ± 0.051	1.9 ± 0.041
KVISSDARGVIGVIAGG [RPL2A]	2.81 ± 0.086	2.82 ± 0.091	2.85 ± 0.1	2.84 ± 0.12
DDDINWQELARSTDEFN [RPT5]	3.18 ± 0.064	3.21 ± 0.065	3.11 ± 0.048	3.2 ± 0.043
TTPEINNFIVERVQSDE [SRP68]	3.18 ± 0.15	3.38 ± 0.14	3.37 ± 0.097	2.88 ± 0.13
LEEKLYQMQSNYESVFT [YIL149C/MLP2]	2.24 ± 0.052	1.71 ± 0.028	2.52 ± 0.068	2.57 ± 0.045
TDLTNNSTDGAKITEIG [YIL149C/MLP2]	3.35 ± 0.087	3.17 ± 0.08	3.07 ± 0.058	3.28 ± 0.055
MNVQDRRRLLGPAAAKP [MTR3]	3.23 ± 0.11	3.1 ± 0.11	2.96 ± 0.085	2.97 ± 0.089
QWTGGRGGGHHSFEDAH [FAS1]	3.21 ± 0.24	3.47 ± 0.2	–	–
AHKLKKSLDSIPMSKTI [FAS2]	3 ± 0.083	3.01 ± 0.078	3.01 ± 0.058	2.8 ± 0.083
LHNFESVAPTKQREIVK [NUT1]	2.71 ± 0.084	2.55 ± 0.065	2.7 ± 0.053	2.6 ± 0.044
NEVYSAYVVNDTAPKPN [DLS1]	3.47 ± 0.12	3.1 ± 0.12	2.95 ± 0.099	3.25 ± 0.066
DDETPSCEVEEIGLLGG [SNU114]	3.13 ± 0.11	3.35 ± 0.084	3.26 ± 0.07	3.14 ± 0.065
DLEWQELTSFSSQPLEP [DSN1]	3.05 ± 0.054	3.05 ± 0.053	2.98 ± 0.054	2.98 ± 0.036
IIFASTKLGFTFTIKEF [SNU114]	2.37 ± 0.078	2.44 ± 0.059	1.83 ± 0.074	2.56 ± 0.066
SRKRAKKMTKKAKRSNL [PRP8]	2.94 ± 0.07	2.16 ± 0.069	2.11 ± 0.094	2.52 ± 0.082
NQFKRIDTLLYLMTYPQ [RET1]	1.4 ± 0.1	1.44 ± 0.11	1.48 ± 0.14	1.55 ± 0.067
PSINLDPDNTSFSDENS [ESC2]	2.83 ± 0.072	2.93 ± 0.054	2.58 ± 0.064	3.07 ± 0.029
DIKAAVDDSMELCGQIR [ITC1]	2.65 ± 0.092	2.82 ± 0.12	2.21 ± 0.17	2.9 ± 0.14

Sequence	protein stability index (doa10∆)	protein stability index (pdr5∆)	protein stability index (san1∆)	protein stability index (ubr1∆)
QFKTTIKDTANDNDITV [UBP6]	2.45 ± 0.11	2.09 ± 0.074	2.19 ± 0.084	1.67 ± 0.041
QTAVTCESCSTVLCTPT [RPS27B]	1.89 ± 0.055	2.29 ± 0.058	2.06 ± 0.071	2.09 ± 0.066
ICLYSSFQKNSLHNTEK [AAR2]	1.99 ± 0.065	2.24 ± 0.058	2.57 ± 0.064	2.78 ± 0.057
KMEKKKSSSLSLESFMK [SNM1]	3.06 ± 0.1	3.32 ± 0.12	2.93 ± 0.14	2.97 ± 0.084
KEKAPTIIFIDELDAIG [RPT5]	2.57 ± 0.068	2.35 ± 0.041	1.85 ± 0.11	2.4 ± 0.052
TIKDLVGGKSTVQNEIL [FAS2]	3.03 ± 0.073	2.92 ± 0.1	2.21 ± 0.1	3.24 ± 0.11
FQETLDSTVVYPLPKFP [MED8]	3.05 ± 0.05	3.19 ± 0.044	2.95 ± 0.042	3.15 ± 0.044
GILGNKAQAKMDKRAKT [RPL8B]	3.58 ± 0.12	3.48 ± 0.15	3.4 ± 0.058	3.63 ± 0.079
LKESVEGEFNGDTIELA [PRE8]	3.12 ± 0.092	3.48 ± 0.11	3.4 ± 0.072	3.2 ± 0.073
QPSDVKPTSHKQLQQPK [SIR4]	2.98 ± 0.096	3.15 ± 0.088	2.99 ± 0.084	3.06 ± 0.076
QEEFVQFLQLDNDGFSF [ECM29]	1.9 ± 0.087	3.13 ± 0.12	1.93 ± 0.11	2.41 ± 0.11
FEKDLMAYFDENLNRNW [BRN1]	2.93 ± 0.059	3.27 ± 0.063	3.14 ± 0.056	3.17 ± 0.057
NNSNSNNNSSNEKEQLS [SEC65]	2.77 ± 0.041	2.72 ± 0.041	2.79 ± 0.031	2.76 ± 0.035
VTALEVLSLGRPNLPTH [RGR1]	2.93 ± 0.14	–	2.18 ± 0.14	2.33 ± 0.079
ITPSAMKLVPSIPPATI [RPB5]	2.32 ± 0.054	2.56 ± 0.069	2.35 ± 0.057	2.5 ± 0.054
IIASASYDKTVKLWEED [YGL100W/SEH1]	3.3 ± 0.18	3.67 ± 0.25	3.22 ± 0.093	3.41 ± 0.12
SETDLNDIPLGSGQPDN [SRB8]	3.09 ± 0.11	3.12 ± 0.069	3.06 ± 0.07	2.87 ± 0.056
NHNGSALLIEVFTALLR [ITC1]	1.68 ± 0.074	1.38 ± 0.055	1.47 ± 0.094	1.35 ± 0.053
EHNPSAHTASVGVVFGS [COR1]	3.21 ± 0.16	3.24 ± 0.13	2.88 ± 0.14	2.22 ± 0.27
LNLEQVTLNKYCSGNIY [YJL039C/NUP192]	2.37 ± 0.044	2.16 ± 0.048	2.59 ± 0.052	2.39 ± 0.046
SCKDSQLKWAQNTIDDT [YIL149C/MLP2]	2.15 ± 0.042	2.89 ± 0.057	2.65 ± 0.046	2.74 ± 0.053
QSLDTIGGSDAAFEKRY [RPO21]	3.25 ± 0.095	3.38 ± 0.074	3.37 ± 0.049	3.25 ± 0.06
QGKSKLIIIAANTPVLR [RPL30]	2.91 ± 0.093	3.08 ± 0.12	2.96 ± 0.065	2.99 ± 0.078
DPEEVEQQVAEEATTEE [RPS0A]	3.3 ± 0.086	3.33 ± 0.097	3.1 ± 0.077	3.56 ± 0.077
CITKQDGFKIYDNEKTA [PUP2]	2.85 ± 0.1	3.06 ± 0.063	3.1 ± 0.05	2.82 ± 0.095
DDSANIVNVNFMKSVIR [DIS3]	2.92 ± 0.051	3.1 ± 0.06	3.06 ± 0.069	3.03 ± 0.044
